Reference: patent US12281155 (INSTITUT PASTEUR, dated 2025)
Residue numbers refer to the chain shown, from its start.

B1: SPK002M A3 antibody (antibody, human IgG1, kappa, V domains shown)
VH: EVQLVESGGGLIQPGGSLRLSCAASTITVTSNYMSWVRQAPGKGLEWVSVIYPGGSTFYADSVKGRFTISADNSKNTLYLQMNSLRAEDTAVYYCARDLVVYGMDVWGQGTTVTVSS
VL: EIVLTQSPGTLSLSPGERATLSCRASQSVSSSYLAWYQQKPGQAPRLLIYGASSRATGIPGRFSGSGSGTDFTLTISRLEPEDFAVYYCQQGVTFGGGTKVEIKR
B2: SPK002M A5 antibody (antibody, human IgG1, kappa, V domains shown)
VH: B1 VH with T26V
VL: B1 VL with V86I
B3: SPK002M A1 antibody (antibody, human IgG1, kappa, V domains shown)
VH: B1 VH
VL: B1 VL with S28G, V29F
B4: SPK002M A4 antibody (antibody, human IgG1, kappa, V domains shown)
VH: B1 VH with T26V
VL: B1 VL
B5: SPK002M A2 antibody (antibody, human IgG1, kappa, V domains shown)
VH: B1 VH
VL: B1 VL with S28G
B6: SPK002M A6 antibody (antibody, human IgG1, kappa, V domains shown)
VH: B1 VH with T26G
VL: B1 VL with V86I
B7: SPK002 antibody (parental version Cv2.3194 described in WO 2022/228827) (antibody, V domains shown)
VH: EVQLVESGGGLIQPGGSLRLSCAASGITVTSNYMSWVRQAPGKGLEWVSVIYPGGSTFYADSVKGRFTISRDNSKNTLYLQMNSLRAEDTAVYYCARDLVVYGMDVWGQGTTVTVS
VL: EIVLTQSPGTLSLSPGERATLSCRASQSVSSSYLAWYQQKPGQAPRLLIYGASSRATGIPGRFSGSGSGTDFTLTISRLEPEDFAIYYCQQGVTFGGGTKVEIK

Biological target: T1, recombinant SARS-CoV-2 Spike RBD domain, XBB.1.5 variant (SARS-CoV-2)
T1 construct: also called RBD XBB.1.5 variant
Test: ELISA on coated RBD

B1 and B2 are the same in “Binding AUC” value: 35 for the first, 35 for the second.

B3 and B4 are the same in “Binding AUC” value: 35 for the first, 35 for the second.

With B5 the “Binding AUC” value was 36.

Biological target: T2, recombinant SARS-CoV-2 Spike RBD domain, Delta variant (SARS-CoV-2)
T2 construct: also called RBD Delta variant
Test: ELISA on coated RBD

Compared with B1, B2 is higher in “Binding AUC” value: 31 for the first, 33 for the second.

B3 and B4 are the same in “Binding AUC” value: 31 for the first, 31 for the second.

In the case of B5, the “Binding AUC” value is reported as 31.

Biological target: T3, recombinant SARS-CoV-2 Spike RBD domain, BA.2.86 variant (SARS-CoV-2)
T3 construct: also called RBD BA.2.86 variant
Test: ELISA on coated RBD

B1 and B2 are the same in “Binding AUC” value: 38 for the first, 38 for the second.

First: B3
Second: B4
The “Binding AUC” value of the first is lower: 37 for the first, 38 for the second.

For B5, the “Binding AUC” value was 38.

Biological target: T4, recombinant SARS-CoV-2 Spike RBD domain, BQ.1.1 variant (SARS-CoV-2)
T4 construct: also called RBD BQ.1.1. variant
Test: ELISA on coated RBD

B1 and B2 are the same in “Binding AUC” value: 30 for the first, 30 for the second.

B3 and B4 are the same in “Binding AUC” value: 30 for the first, 30 for the second.

B5 was tested, and the “Binding AUC” value was 30.

Biological target: T5, recombinant SARS-CoV-2 Spike RBD domain, BA.4/5 variant (SARS-CoV-2)
T5 construct: also called RBD BA.4/5 variant
Test: ELISA on coated RBD

Going from B1 to B2, the “Binding AUC” value rises from 30 to 32.

First: B3
Second: B4
The “Binding AUC” value of the first is higher: 31 for the first, 30 for the second.

For B5, the “Binding AUC” value was 30.

Biological target: T6, recombinant SARS-CoV-2 Spike RBD domain, BA.2.75.2 variant (SARS-CoV-2)
T6 construct: also called RBD BA.2.75.2 variant
Test: ELISA on coated RBD

B1 and B2 are the same in “Binding AUC” value: 34 for the first, 34 for the second.

B3 and B4 are the same in “Binding AUC” value: 34 for the first, 34 for the second.

For B5, the “Binding AUC” value was 34.

Biological target: T7, recombinant SARS-CoV-2 Spike RBD domain, XBB.1.16 variant (SARS-CoV-2)
T7 construct: also called RBD XBB.1.16 variant
Test: ELISA on coated RBD

B1 and B2 are the same in “Binding AUC” value: 31 for the first, 31 for the second.

B3 and B4 are the same in “Binding AUC” value: 30 for the first, 30 for the second.

With B5 the “Binding AUC” value was 31.

Biological target: T8, recombinant SARS-CoV-2 Spike RBD domain, BA.2 variant (SARS-CoV-2)
T8 construct: also called RBD BA.2. variant
Test: ELISA on coated RBD

First: B1
Second: B2
The “Binding AUC” value of the first is higher: 32 for the first, 27 for the second.

First: B3
Second: B4
The “Binding AUC” value of the first is higher: 33 for the first, 29 for the second.

B5 was tested, and the “Binding AUC” value was 32.

Biological target: T9, recombinant SARS-CoV-2 Spike RBD domain, EG.5 variant (SARS-CoV-2)
T9 construct: also called RBD EG.5.1 variant
Test: ELISA on coated RBD

Compared with B1, B2 is higher in “Binding AUC” value: 34 for the first, 35 for the second.

First: B3
Second: B4
The “Binding AUC” value of the first is higher: 35 for the first, 34 for the second.

B5 was tested, and the “Binding AUC” value was 35.

Biological target: T10, recombinant SARS-CoV-2 Spike RBD domain, JN-1 variant (SARS-CoV-2)
T10 construct: also called RBD JN-1 variant
Test: ELISA on coated RBD

Compared with B1, B2 is higher in “Binding AUC” value: 26 for the first, 32 for the second.

Compared with B3, B4 is lower in “Binding AUC” value: 39 for the first, 31 for the second.

With B5 the “Binding AUC” value was 37.

Biological target: Spike protein of SARS-CoV-2 strain D614G (hCoV-19/France/GE1973/2020) (SARS-CoV-2, UniProt P0DTC2 14-1273)
Test: cell-based or functional assay

B1 and B2 are within 1.5-fold of each other in “IC50, S-Fuse neutralization of live virus” value (from here on “IC50, S-Fuse neutralization”): 0.11 µg/mL for the first, 0.09 µg/mL for the second.

B6 and B3 are within 1.5-fold of each other in “IC50, S-Fuse neutralization” value: 0.07 µg/mL for the first, 0.08 µg/mL for the second.

B4 and B5 are within 1.5-fold of each other in “IC50, S-Fuse neutralization” value: 0.11 µg/mL for the first, 0.1 µg/mL for the second.

In the case of B7, the “IC50, S-Fuse neutralization” value is reported as 0.09 µg/mL.

Biological target: Spike protein of SARS-CoV-2 strain JN.1 (hCoV-19/France/HDF-IPP21391/2023) (SARS-CoV-2)
Test: cell-based or functional assay

B1 and B2 are within 1.5-fold of each other in “IC50, S-Fuse neutralization” value: 76.3 µg/mL for the first, 50.9 µg/mL for the second.

Going from B6 to B3, the “IC50, S-Fuse neutralization” value falls from 100 µg/mL to 1.28 µg/mL (78-fold).

First: B4
Second: B5
The “IC50, S-Fuse neutralization” value of the first is 2.2-fold higher: 54.6 µg/mL for the first, 25.3 µg/mL for the second.

For B7, the “IC50, S-Fuse neutralization” value was 100 µg/mL.

Biological target: Spike protein of SARS-CoV-2 strain BA.2.86 (hCoV-19/France/IDF-IPP17625/2023) (SARS-CoV-2)
Test: cell-based or functional assay

First: B1
Second: B2
The “IC50, S-Fuse neutralization” value of the first is 1.6-fold lower: 0.05 µg/mL for the first, 0.08 µg/mL for the second.

First: B6
Second: B3
The “IC50, S-Fuse neutralization” value of the first is 32-fold higher: 0.63 µg/mL for the first, 0.02 µg/mL for the second.

B4 and B5 are within 1.5-fold of each other in “IC50, S-Fuse neutralization” value: 0.04 µg/mL for the first, 0.05 µg/mL for the second.

For B7, the “IC50, S-Fuse neutralization” value was 100 µg/mL.

Biological target: Spike protein of SARS-CoV-2 strain XBB.1.5 (GISAID EPI_ISL_16353849) (SARS-CoV-2)
Test: cell-based or functional assay

B1 and B2 are the same in “IC50, S-Fuse neutralization” value: 0.12 µg/mL for the first, 0.12 µg/mL for the second.

Compared with B6, B3 is 5.1-fold lower in “IC50, S-Fuse neutralization” value: 0.36 µg/mL for the first, 0.07 µg/mL for the second.

B4 and B5 are within 1.5-fold of each other in “IC50, S-Fuse neutralization” value: 0.12 µg/mL for the first, 0.1 µg/mL for the second.

For B7, the “IC50, S-Fuse neutralization” value was 216 µg/mL.

Biological target: Spike protein of SARS-CoV-2 strain XBB.1.16 (hCoV-19/France/GES-IPP7712/2023) (SARS-CoV-2)
Test: cell-based or functional assay

B1 and B2 are the same in “IC50, S-Fuse neutralization” value: 0.36 µg/mL for the first, 0.36 µg/mL for the second.

Compared with B6, B3 is 7.9-fold lower in “IC50, S-Fuse neutralization” value: 1.34 µg/mL for the first, 0.17 µg/mL for the second.

B4 and B5 are within 1.5-fold of each other in “IC50, S-Fuse neutralization” value: 0.36 µg/mL for the first, 0.33 µg/mL for the second.

B7 was tested, and the “IC50, S-Fuse neutralization” value was 156 µg/mL.

Biological target: Spike protein of SARS-CoV-2 strain EG.5.1 (hCoV-19/France/GES-IPP15954/2023) (SARS-CoV-2)
Test: cell-based or functional assay

Compared with B1, B2 is 2.1-fold lower in “IC50, S-Fuse neutralization” value: 5.92 µg/mL for the first, 2.86 µg/mL for the second.

Compared with B6, B3 is 140-fold lower in “IC50, S-Fuse neutralization” value: 21.1 µg/mL for the first, 0.15 µg/mL for the second.

Going from B4 to B5, the “IC50, S-Fuse neutralization” value falls from 2.8 µg/mL to 1.65 µg/mL (1.7-fold).

For B7, the “IC50, S-Fuse neutralization” value was 100 µg/mL.

Biological target: T1, recombinant SARS-CoV-2 Spike RBD …
Test: competition ELISA, blocking of RBD binding to ACE2 ectodomain

B1 and B2 are the same in Blocking %: 95% for the first, 95% for the second.

Compared with B3, B4 is lower in Blocking %: 97% for the first, 95% for the second.

B5 gave a Blocking % of 96%.

Biological target: T2, recombinant SARS-CoV-2 Spike RBD …
Test: as above

Going from B1 to B2, the Blocking % falls from 95% to 93%.

First: B3
Second: B4
The Blocking % of the first is higher: 94% for the first, 93% for the second.

In the case of B5, the Blocking % is reported as 95%.

Biological target: T3, recombinant SARS-CoV-2 Spike RBD …
Test: as above

Compared with B1, B2 is lower in Blocking %: 85% for the first, 84% for the second.

First: B3
Second: B4
The Blocking % of the first is higher: 85% for the first, 80% for the second.

B5 gave a Blocking % of 85%.

Biological target: T4, recombinant SARS-CoV-2 Spike RBD …
Test: as above

B1 and B2 are the same in Blocking %: 96% for the first, 96% for the second.

Compared with B3, B4 is lower in Blocking %: 97% for the first, 96% for the second.

With B5 the Blocking % was 97%.

Biological target: T5, recombinant SARS-CoV-2 Spike RBD …
Test: as above

B1 and B2 are the same in Blocking %: 96% for the first, 96% for the second.

First: B3
Second: B4
The Blocking % of the first is higher: 97% for the first, 96% for the second.

For B5, the Blocking % was 97%.

Biological target: T6, recombinant SARS-CoV-2 Spike RBD …
Test: as above

First: B1
Second: B2
The Blocking % of the first is higher: 96% for the first, 95% for the second.

B3 and B4 are the same in Blocking %: 96% for the first, 96% for the second.

For B5, the Blocking % was 96%.

Biological target: T7, recombinant SARS-CoV-2 Spike RBD …
Test: as above

B1 and B2 are the same in Blocking %: 95% for the first, 95% for the second.

Compared with B3, B4 is lower in Blocking %: 97% for the first, 95% for the second.

Binder B5 has a Blocking % of 96%.

Biological target: T8, recombinant SARS-CoV-2 Spike RBD …
Test: as above

Going from B1 to B2, the Blocking % falls from 94% to 93%.

First: B3
Second: B4
The Blocking % of the first is higher: 95% for the first, 93% for the second.

With B5 the Blocking % was 94%.

Biological target: T9, recombinant SARS-CoV-2 Spike RBD …
Test: as above

Going from B1 to B2, the Blocking % rises from 79% to 83%.

First: B3
Second: B4
The Blocking % of the first is higher: 90% for the first, 80% for the second.

B5 gave a Blocking % of 88%.

Biological target: T10, recombinant SARS-CoV-2 Spike RBD …
Test: as above

First: B1
Second: B2
The Blocking % of the first is lower: 0% for the first, 2% for the second.

Compared with B3, B4 is lower in Blocking %: 71% for the first, 2% for the second.

In the case of B5, the Blocking % is reported as 1%.
